Measured values reported in the DeepSol protein solubility set.

Assay: soluble on expression in E. coli; label from the status in PepcDB or PDB records

Soluble on expression in E. coli, not soluble:
MGSDKIHHHHHHMLLAPEDKLNERRAEYPGIEVHPLKFCSSELQAGHWKFLMGAIGNQAAYIRQLGNIMRKNRNNLSIQAIRDGIQNSSLSDSLKDLADMRLDFAEQYIDDQLNVGSLIRPGRMIVVDVRDEFIEKDEALGLFVVLLQIFSEAKYQGQSFNKLIVFDECHKYIDSPDLVKGLVETVREMRHKGTSVMIASQDPPSVPIELIQLSSQIILHKFNAPDWLKHIQKACIGLKSLTPEKLGALKPGEAFIWSSKASDNAFVSDAMKIQCRPRVTKHGGDTLTAI, MGSDKIHHHHHHMLMKGVTLRGLEVFEALAKSGSVAQAADITGLSQPAVSQQLRNLEKALGSDLVDHGRRPMVLTSAGRSFLSRTQAILSELRLAQSELTVMDLSHLPALSIGLIDDFDNDLTPRLATILADSLTQCRFKMVTASSHDIHRAMAEKDLHIGVAASTGELRTGVTEYPLVEEPFILVAPRGCITDPDDVGNQLNHLPLLRYARDQLISQQIESHLSRNKMEFDDRFEIGSHLALMAMVARRIGWAITTPLGYMRAVRFHEDIDAYALPFAGFSRRISLFAQSDWPDTVPLEVAGTVRRLTQSQMITPAINRLPWLAGQLRVIEE, MGSDKIHHHHHHMLNNYMSILSLNENDNDIKSLTKARPLASIPIAGRYRIIDFILSNLVNSGVKNIGILTQCKSRSLLDHLGSGKPWDLDRKLNGLFIFNFSGITSTLSDIEMLKSNMEYLYRSTQEKVILSSSAVICNIDFQRAAEFHEKSGKDITLIYKRTNNGKRKFLNCSVLNMDKNNNVISIGKNTGLDDVQNISLGMFIMNKKLLINILNNCIRTGFSLSLKQCIRKHMNNFTVNAYEFNGYAEYIDSVKSYYKVNMDMLNLDINREVFFKNGLIYTKVKDEAPTKYFNDSEVCNSLIANGSLIHGQIENSIIGRRVTISKGARIKNCVIMQNCTIKENVDLTNVIVDKNVIIDENTVLKGGKEFPLVIEKKSIYSEV, MGSDKIHHHHHHMLPNLKKALDGIVVCDFSWVGAGPIATNVLGQCGAEVIKIESKSRPDLLRTGGPFKDGINEGLERSGYFANRNPNKKGIALDMSHPKARAVAVRLIRKSDIVINNFRVGQMEKWGLGWEDVRKINPRIIYVTMSLQGETGPQKSYMGFGVNLNALCGLTAQACFPGERPFGTGTNYTDHVMAPSHTLFGIMAALLEREQTGEGQTVAISQLKSAISMAPTSAMTYAANGDTLGPAGLSDPNAAPHGLFTTLGYRRWIAIAVFSEDEWRALKKVMGNPAWAEDGKFGSLQSRKENEAELNEHMEAWTSRQHADKIMDELLRNGVRAGVVNDARGAIEDDHLREREFWSYLDHPVMGRTLYNRAPIRLSKTPLRMETAAPLLGQHTRDVLKGMLDYTDEEIAMLSEEKVLV, MGSDKIHHHHHHMLQAFYTGLSGLNSYSKNLDNVSNNIANMNTAGYRGMDSFYQALGGDSDKPGLGAQISGLGYRFSVGDIRQTGNDFDLAITGTGFFALLDGEKVFYTRTGQFEFDQNNVLVDKNTGFKVAGIDSNGQLSEINLLSYQAIKPTATTKLSLTGNLSPLDDVHQISSAKMINSLGEEVDLSIKFTNEKATFPNQWKVEILDDKGIVLHSDSVKFGPDGTPEVGSGSFIFNLADSSGNTTPIDITVGTIGDFSAVTQTSATGVDSNVTLHAVDGKGVGQLVKRSFDPQGRVTLNYSNGDKVTPFTIAMVDFDDISTLSIESGTVFKASDLESRVLGKAGEGRFKQLATSSIEMSNVDLSQEFADMLVIQRGYQASSRILNVANQMIEQLYENTRGR, MGSDKIHHHHHHMLRLSEIKLPLDHPPEAITTAILQKLKIQADELLGYEIFKRSYDARKKDAIVWVYILDLKVKNEAQLLKRFQKDPHVNPTPDMSYRVVAQAPEGLTERPVVIGAGPCGMFAALTLAQMGFRPILFERGKTVRDRTADTFAFWKKRGEFNPESNAQFGEGGAGTFSDGKLYSQVRDPQYYGRKVLTELVNSGANPEILYVNKPHIGTFKLVGVVQQMRARIEALGGEIHFQSRVESLHIEDRQVRGLRLTNGDYIPARHVVLAIGHSARDTFQMLFDQGVYIEAKPFSIGFRIEHPQPLIDRARFGPFAGHKSLGAADYKLVHHCQNGRTVYSFCMCPGGLVVAATSEPGRVVTNGMSQYSRNERNANSGIVVGITPEDYPGHPLAGIDLQRRLEAKAFELGGGTYEAPGQLVGDFLAGRPSQHLGTVRPSYAPGVHLTDLSESLPDYAIAAIREALPAFNRQIQGFALPDAMLTGVETRTSSPVRIKRGEDFQSLNTTGLFPAGEGAGYAGGILSAGIDGIKVAEAVALAMLRSQPQTV, MGSDKIHHHHHHMLTWRKHGLIYSPQAHPPLIGGAGYAQSPQALVFDDFVRIYFSTRELDDKNNKFISRVSYVDMDKNLQEILKVSAAPVIAHAELGTFDEHGIFPFNVLRHNGAVMAWTTGWNRRVSVSVDTSIGLAISHDGGDTFQRHATGPVMSASLHEPYLVGDAFVQHIEGRFHMWYIYGVGWKRQQSDSPPDRIYKIAHAVSDDGIDWVRESKPIIADLLGDDECQALPTVIKVGNRYHMIFCYRECFDFRLGSGRGYRLGYAWSDDLVTWHRDDTQVPAVSESGEWDSEMQCYPHLFQCDEKVYLLYNGNAFGKEGFGLAELTACSE, MGSDKIHHHHHHMLYQGVSLILAPLLVFQGLNVRRTTPRLPEPEGERVGQTGANPALSLLILGDSAAAGVGVAFQQHALLGQVIEQLSPQLEFSYGLFAKTGSTTSTTLQALQEQIDIAHPILGQTHFDVIVTSLGVNDITSSISCEKWLLQQKALFELITKRYTPKLILVTALPPLGLFPALPHPLRWSLGQRANQFNRQLQQLLIKLNQQVDQPTDFRLIKLPLENPQPDITMLEFMRQVMASDGFHPGAPIYSAWANLVVEQIVGGIKSAAIA, MGSDKIHHHHHHMMGGKTLVLLDERLISLSMTDNRGFDADQVTLSVDDADGLLQLPPRGADLSVSIGWKGEALVYKGVFIVDEVAHSGPPDTLEVTARSADFRDEFNVKREISWHDLTVERVVSAIAHRYKLKPVISAQLMDLEIDHADQTQESDMSFLTRMAEMLGAIATVKNGCLLFILPGGGVSASGKPLPAAEITRSSGDRHSFRIADRDAYTGVRAYWLDLNFGKKKKVSVKRRKAKPKKEKSSSREGDYMEGEDGNVYVLRKTYQNETAAKRAAAAKWQQLQRGAAQFSITLARGRADLYPEVHVSVSGFKADIDNQEWIISRVEHVIDGSGFTSRLELEAKIADWIAESD, MGSDKIHHHHHHMMKAQFTLTPSESKRLIAKGVKALPILRKALQNHTIILAGGTTNGFLVEELLNETLAEKTRYTVGLIADGKTGESKEEQRIPPFIIAKGKALDRSLHWKDFLPQLEPGDVFIKGGNALDSTGLAAVLVSNSMAGTIGAALGPLYARGVRLVVPIGLEKLIPDVREAVEFMASAPADTALGAKTGLVPMLGATVVTEITALETLYQVTAKCIGAGGVAGSEGAVTLVIEGEAAEVESALSLIQSCKGEPPVR, MGSDKIHHHHHHMMLRASYGTIRKVNGNSSLEMDTAYLMLGERCVYNCLYCAQSRSSTSPSHFLSRVTWKEVSEDLLGKLNDRFKRVCIQVVSYPSYGKDLRLIIPRFRIPVSVSVRAVSIEEVVEYFELGADRVGIAVDVPNKTLFEKIRGGKYERHLHILEKVSEMFPGRITTHVIVGLGESDKDIVDFTVWARERNIVVSLFAFTPIKGTAFENRERPSLERYRKIQLVTYLLEKNLIKPENIIFDSNGKIIDVEWNGEFPEEALRTRGCPHCTRPYYNESPRGPIYNVHWR, MGSDKIHHHHHHMMNDRDERWDRIAGKLDTLLDRFDRFLDGHIPPPPPDGRLFERHLAFRWRRTGEGGAFLPVEHPHLPDLDDLMGIDLVRDELVRNTGQFVVGYPANNVLLWGERGTGKSTCVKGLLRRFSEEGLRLVEVLRDDLCTLPAIIAPLRKMPQRFILFCDDLSFGEGEGGYRELKVLLEGGIEERPSNILFYATSNRRHLLPERMEDNLGGEIHPEEAVSEKLSLADRFGLNLSFYSFDQDTYLAIVARYAEKFSLPMGGEALRREALQWAIFKGSRSGRSARQFVDDLAGRLRVALPAEK, MGSDKIHHHHHHMMNQFFEPPRVEALHVQNYRALQNVRLDSITPLTVLLGPNGSGKSTLVDVFAFLSECFGEGLRKAWDRRGRFRELRSRDSVGPIVIELQYREKPGTPLITYHLEIDEKDRGPVVKREFLRWKRTHPGAPFYFLDYREGVGRVITGEQPESQDKRIEKPLSGPDVLAVNTLGQLAENPRVIALRAFITSWHLSYLSADAARGNPEAGAEERLSQTGDNLANVIQYLGEEHPERLNKIFETLKRRVPRIEKVTSRPLDDGRLLLQVKDAPFSSPVLARFASDGTLKMLAYLILLYDPEPPQLIGIEEPENYLHPRLLPELAEECDMASERTQLIVTTHSPFFIDRLRPEQVRVLYRGADGYTRAKRVADMRGIGEFLEAGASLGDLWMEGHFDVGDPLAGEEGA, MGSDKIHHHHHHMMQNNPFPYSNTEKRYHTLNYHLREHFGHKVFKVALDGGFDCPNRDGTVAHGGCTFCSAAGSGDFAGNRTDDLITQFHDIKNRMHEKWKDGKYIAYFQAFTNTHAPVEVLREKFESVLALDDVVGISIATRPDCLPDDVVDYLAELNERTYLWVELGLQTVHERTALLINRAHDFNCYVEGVNKLRKHGIRVCSHIINGLPLEDRDMMMETAKAVADLDVQGIKIHLLHLLKGTPMVKQYEKGKLEFLSQDDYVQLVCDQLEIIPPEMIVHRITGDGPIELMIGPMWSVNKWEVLGAINKELENRGSYQGKFFQRLEEESAL, MGSDKIHHHHHHMMRLLCFIDYLGSGGAQRQLTFLARHLKKSGVDVEVLTYHESDFFIPVLAEAGINVETVRGGGRFTKVFSLRKSIRARKFDVLLAFLNAPALYAEIAALPRRRWGLVVSERLAVPGSSMGFARFRRYLHGLADYVTTNSHTNRLLIEKAVPGLTGKVVTIYNALDLEYFSPLQGPVPAGDGRLRFVVLASHQLKKNLLGLVEAAHQVVQAAPELDFTIEWFGRFDAGKNGPGDTGPFEQAKRRIETFRIQDRFIFSEPTSDVAAVYRRADALILPSFYEGLPNVVCEAMACGRPVLMSNVCDAENLVREGDNGFLFDPRDPADMARAILRFAALSGDDRKLMGEKSRKRAVILFNPERFAAHYRRVLESAMRREQTIIPHWCESIPQSAIRMIENEK, MGSDKIHHHHHHMMSGLVYRKRRRQNMTALERSWFEEAQQSMHGWDFSHLAGRWQTADLPWDYAALVREHLSADDRWLDIDTGGGELMGRFNPQPALTAVTEGWQPNIELLKQTVVKKGITLYPDAAEQLTAVPNSTFDIVTNSHGAMPVKRIAEVLKPGGRFVTQQVGATNNYALSRFFDEHYETAYPDNQLLTVMAQMQAAGFEILRAEQAYAALSFTDVGAIVYYATVIPWEFPHFDVARMLPKLHQLQSLLAINGRVTTFEDRFMIIARKLARRD, MGSDKIHHHHHHMMSKYPLLGMTLIELQSLVKRLGMPGFAAKQIASWLYDKKVTSIDEMTNLSLKYRELLKQNYEVGAEAPVEEMRSVDGTVKYLYPVGENHFVESVYIPDDERATLCISSQVGCKMNCKFCMTGKQGYSANLTAHQIINQIHSLPERDKLTNVVMMGMGEPLDNLEEVLKALDILTGSYGYAWSPKRITVSTVGLRKGLRRFIEESDCHLAISLHSPVTAQRAELMPAEKAFSITEMVELLKNYDFSKQRRLSFEYIVFKGLNDSQVYAKELLKLLRGLDCRMNLIRFHSIPGVALEGADMDTMTRFRDYLTTHGLFTTIRASRGEDIFAACGMLSTAKQEENNKS
